Source: PMC3507621

T1: inter-α-trypsin inhibitor (IαI), P19827;P19823
T1 chain 1: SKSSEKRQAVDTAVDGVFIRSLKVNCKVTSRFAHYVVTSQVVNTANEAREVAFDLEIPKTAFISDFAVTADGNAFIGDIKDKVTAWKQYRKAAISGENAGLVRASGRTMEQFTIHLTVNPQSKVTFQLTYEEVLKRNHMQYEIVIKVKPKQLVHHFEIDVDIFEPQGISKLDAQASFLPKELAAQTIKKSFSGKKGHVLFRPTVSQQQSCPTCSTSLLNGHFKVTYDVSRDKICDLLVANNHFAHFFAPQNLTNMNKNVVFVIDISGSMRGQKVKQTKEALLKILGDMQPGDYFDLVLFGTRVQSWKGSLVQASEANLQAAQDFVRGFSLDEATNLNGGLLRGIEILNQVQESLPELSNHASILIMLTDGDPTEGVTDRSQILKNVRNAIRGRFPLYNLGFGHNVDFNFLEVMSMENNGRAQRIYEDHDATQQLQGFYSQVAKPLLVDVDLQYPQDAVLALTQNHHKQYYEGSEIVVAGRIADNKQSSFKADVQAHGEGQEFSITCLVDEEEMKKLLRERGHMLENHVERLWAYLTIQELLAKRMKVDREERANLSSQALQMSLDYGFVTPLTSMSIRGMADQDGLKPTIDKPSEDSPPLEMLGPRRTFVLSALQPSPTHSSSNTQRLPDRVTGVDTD
T1 chain 2: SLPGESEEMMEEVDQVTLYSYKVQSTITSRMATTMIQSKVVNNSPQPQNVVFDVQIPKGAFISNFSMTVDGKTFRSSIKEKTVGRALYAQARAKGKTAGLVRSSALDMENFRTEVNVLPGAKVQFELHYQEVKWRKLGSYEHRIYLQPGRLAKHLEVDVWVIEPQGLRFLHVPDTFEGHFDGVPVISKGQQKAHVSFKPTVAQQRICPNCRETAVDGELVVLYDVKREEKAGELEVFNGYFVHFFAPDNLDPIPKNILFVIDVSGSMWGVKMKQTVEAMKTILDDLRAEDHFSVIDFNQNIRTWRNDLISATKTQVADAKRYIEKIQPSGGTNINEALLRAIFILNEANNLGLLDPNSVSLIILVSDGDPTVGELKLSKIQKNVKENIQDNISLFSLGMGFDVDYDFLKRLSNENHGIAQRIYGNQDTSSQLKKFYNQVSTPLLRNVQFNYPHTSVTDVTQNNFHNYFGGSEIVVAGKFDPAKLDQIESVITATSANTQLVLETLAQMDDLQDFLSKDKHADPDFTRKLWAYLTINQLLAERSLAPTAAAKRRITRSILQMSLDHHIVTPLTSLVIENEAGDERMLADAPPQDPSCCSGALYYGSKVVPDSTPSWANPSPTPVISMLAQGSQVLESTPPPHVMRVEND
T1 chain 3: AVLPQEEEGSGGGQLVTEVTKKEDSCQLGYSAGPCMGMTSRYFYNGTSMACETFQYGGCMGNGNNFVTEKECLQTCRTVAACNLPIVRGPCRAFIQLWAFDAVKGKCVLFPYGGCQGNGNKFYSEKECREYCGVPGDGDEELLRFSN


How the values were obtained:
[1] = target: T1, inter-α-trypsin inhibitor (IαI), …; assay: ELISA; conditions: chain shown with the change, pH 7.4, PBS with Ca2+ and Mg2+, read off a plot
[2] = target: T1, inter-α-trypsin inhibitor (IαI), …; assay: competition ELISA (bPTX3 detected with HRP-conjugated streptavidin); conditions: chain shown with the change, wells coated with IαI, read off a plot
[3] = IαI 100 nM (est. from x axis), parent: est. 2.6
[4] = IαI about 1.7 nM (est. from x axis), parent: est. 1.0
[5] = IαI about 6 nM (est. from x axis), parent: est. 2.2
[6] = IαI about 46 nM (est. from x axis), parent: est. 2.7
[7] = IαI about 13 nM (est. from x axis), parent: est. 2.5

response [1, 3] | response [1, 4] | response [1, 5] | response [1, 6] | other: bPTX3 bound to IαI (% of bPTX3 binding in the absence of competitors) ([2]; competitor about 0.24 nM (est. from x axis), parent: est. 99) | other: bPTX3 bound to IαI (% of bPTX3 binding in the absence of competitors) ([2]; competitor about 2.5 nM (est. from x axis), parent: est. 98) | other: bPTX3 bound to IαI (% of bPTX3 binding in the absence of competitors) ([2]; competitor about 24 nM (est. from x axis), parent: est. 80) | other: bPTX3 bound to IαI (% of bPTX3 binding in the absence of competitors) ([2]; competitor about 240 nM (est. from x axis), parent: est. 38) | other: bPTX3 bound to IαI (% of bPTX3 binding in the absence of competitors) ([2]; competitor about 2400 nM (est. from x axis), parent: est. 11) | response [1, 7] | Binder
2.6 O.D. (450nm) | 0.45 O.D. (450nm) | 1.3 O.D. (450nm) | 2.5 O.D. (450nm) | 99% | 96% | 82% | 59% | 30% | – | wild type recombinant N-terminal region of PTX3 (N_PTX3), P26022 C47S; C49S; C103S (protein) ENSDDYDLMYVNLDNEIDNGLHPTEDPTPSASGQEHSEWDKLFIMLENSQMRERMLLQATDDVLRGELQRLREELGRLAESLARPSAPGAPAEARLTSALDELLQATRDAGRRLARMEGAEAQRPEEAGRALAAVLEELRQTRADLHAVQGWATG
2.6 O.D. (450nm) | 0.28 O.D. (450nm) | 1.1 O.D. (450nm) | 2.5 O.D. (450nm) | – | – | – | – | – | 1.7 O.D. (450nm) | wild type recombinant N-terminal region of PTX3 (N_PTX3), P26022 C103S (protein) ENSDDYDLMYVNLDNEIDNGLHPTEDPTPCACGQEHSEWDKLFIMLENSQMRERMLLQATDDVLRGELQRLREELGRLAESLARPSAPGAPAEARLTSALDELLQATRDAGRRLARMEGAEAQRPEEAGRALAAVLEELRQTRADLHAVQGWATG
2.6 O.D. (450nm) | 0.24 O.D. (450nm) | 0.86 O.D. (450nm) | 2.4 O.D. (450nm) | – | – | – | – | – | 1.4 O.D. (450nm) | wild type recombinant N-terminal region of PTX3 (N_PTX3), P26022 C47S; C49S (protein) ENSDDYDLMYVNLDNEIDNGLHPTEDPTPSASGQEHSEWDKLFIMLENSQMRERMLLQATDDVLRGELQRLREELGRLAESLARPCAPGAPAEARLTSALDELLQATRDAGRRLARMEGAEAQRPEEAGRALAAVLEELRQTRADLHAVQGWATG
